Laboratory results reported in the supplement of paper PMC10126150.
± gives the standard deviation of the averaged measurements.

The sequences below were run on ATP (assay: switch fluorescence ratio, 500 uM ATP over buffer (Cy3 cluster intensity, sum of 5 cycles each) (fold (ratio)); higher = stronger signal-on switching upon ATP binding; sequences stand for … in TCGTCGGCAGCGTCAGATGTGTATAAGAGACAGTTTTTTTTTTTTTTTTTTTTTTTTT…TC). Details: aptamer strand: ATP DNA aptamer (quencher-CACCTGGGGGAGTATTGCGGAGGAAGG + anchor), 100 nM annealed; ATP concentration: 500 uM.
In short: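 For every switch-domain sequence, the fluorescence ratio is the mean of per-cluster values, each being summed target-cycle Cy3 intensity over summed buffer-cycle Cy3 intensity. Clusters outside 100-1000 RFU were excluded. On a modified Illumina MiSeq flow-cell, the Cy3-labelled switching-strand clusters were annealed to 100 nM quencher-labelled ATP aptamer, imaged in selection buffer and then after 15 min with 500 uM ATP at 22 °C. Five such cycles were run, with NaOH stripping and re-annealing between them.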
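Further: ATP exposure 15 min at 22 °C before imaging.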

| Sequence | switch fluorescence ratio |
| --- | --- |
| GTAAGTAGCG | 0.968 ± 0.02 |
| GTAATAAATT | 1.02 ± 0.092 |
| GTAATAGTGT | 0.981 ± 0.018 |
| GTAATATCGG | 0.998 ± 0.018 |
| GTAATGCCAG | 0.986 ± 0.031 |
| GTAATGGCGG | 1.013 ± 0.0019 |
| GTAATGTGGG | 0.972 ± 0.022 |
| GTAATTGGTG | 0.992 ± 0.014 |
| GTAATTTTGA | 1.01 ± 0.057 |
| GTACGACAAG | 1.11 ± 0.042 |
| GTACGGGGTT | 0.993 ± 0.023 |
| GTACGGTTTT | 0.994 ± 0.073 |
| GTACTAAATT | 1 ± 0.023 |
| GTACTTTAAT | 1.034 ± 0.0036 |
| GTAGAAATTC | 1.24 ± 0.048 |
| GTAGCAGACG | 1.16 ± 0.013 |
| GTAGCAGCAG | 1.17 ± 0.018 |
| GTAGCGGGAG | 1.057 ± 0.0053 |
| GTAGCGGGGT | 1.006 ± 0.0054 |
| GTAGGAGGGG | 0.985 ± 0.011 |
| GTAGGAGGTG | 1.07 ± 0.019 |
| GTAGGATTTC | 1.01 ± 0.027 |
| GTAGGGCGGG | 0.979 ± 0.043 |
| GTAGGGCGGT | 0.955 ± 0.026 |
| GTAGGGCGTA | 0.9635 ± 0.0073 |

| Sequence | switch fluorescence ratio |
| --- | --- |
| GTAGGGGATT | 1.029 ± 0.006 |
| GTAGGGGGGG | 0.999 ± 0.051 |
| GTAGGGGTTG | 1.01 ± 0.053 |
| GTAGGTCGAC | 1.01 ± 0.012 |
| GTAGTATTGG | 0.982 ± 0.028 |
| GTAGTCGGGT | 1.006 ± 0.0044 |
| GTAGTTACTT | 0.995 ± 0.051 |
| GTAGTTCGCC | 1.02 ± 0.023 |
| GTAGTTCTAG | 0.9852 ± 0.0081 |
| GTAGTTCTGC | 1 ± 0.018 |
| GTAGTTTGAA | 0.989 ± 0.036 |
| GTAGTTTTGG | 1.01 ± 0.026 |
| GTATAAATGT | 0.984 ± 0.051 |
| GTATAAGGGT | 1.01 ± 0.018 |
| GTATAGGGAC | 1.03 ± 0.03 |
| GTATATATAT | 0.979 ± 0.028 |
| GTATCCGGGA | 1.02 ± 0.057 |
| GTATCTGGGT | 0.997 ± 0.011 |
| GTATGAGTCG | 1.01 ± 0.085 |
| GTATGATTGT | 0.994 ± 0.027 |
| GTATGATTTA | 0.989 ± 0.037 |
| GTATGCAGGG | 0.989 ± 0.035 |
| GTATGGAGAG | 1.0111 ± 6.5e-05 |
| GTATGGATTC | 0.987 ± 0.057 |
| GTATGGCGAC | 1.02 ± 0.011 |

| Sequence | switch fluorescence ratio |
| --- | --- |
| GTATGGGACG | 1.003 ± 0.006 |
| GTATGGGATA | 1.01 ± 0.035 |
| GTATGGGTGG | 1 ± 0.024 |
| GTATGTGGGT | 1.023 ± 0.0072 |
| GTATTAAAAG | 1 ± 0.049 |
| GTATTAGGTG | 1.03 ± 0.048 |
| GTATTATGCG | 1.02 ± 0.028 |
| GTATTCAGGT | 0.9921 ± 0.0035 |
| GTATTCATTT | 0.982 ± 0.036 |
| GTATTCTGTT | 0.997 ± 0.013 |
| GTATTGTGGT | 0.967 ± 0.017 |
| GTATTTAGGA | 0.992 ± 0.011 |
| GTATTTGGGG | 0.985 ± 0.034 |
| GTATTTTTTT | 0.967 ± 0.013 |
| GTCAAATTGT | 0.992 ± 0.017 |
| GTCAAGGGGA | 1.02 ± 0.015 |
| GTCACCTTGA | 1.01 ± 0.014 |
| GTCAGAACTA | 0.9786 ± 0.0095 |
| GTCAGAGGGT | 0.994 ± 0.013 |
| GTCAGATGGG | 0.948 ± 0.01 |
| GTCAGCATTT | 1.03 ± 0.038 |
| GTCAGCGGTG | 0.9993 ± 0.009 |
| GTCAGGGGGG | 1.02 ± 0.081 |
| GTCAGTTTTT | 0.99392 ± 0.00038 |
| GTCATCTGGG | 0.982 ± 0.017 |

| Sequence | switch fluorescence ratio |
| --- | --- |
| GTCATTAACT | 1.02 ± 0.027 |
| GTCATTGTAT | 0.966 ± 0.028 |
| GTCATTTTTG | 1.02 ± 0.025 |
| GTCCCCACAG | 1.103 ± 0.007 |
| GTCGAAGAG | 0.987 ± 0.016 |
| GTCGAATTAT | 0.999 ± 0.019 |
| GTCGAGAAGG | 0.991 ± 0.009 |
| GTCGAGAGAA | 1.01 ± 0.011 |
| GTCGAGGGGC | 0.968 ± 0.049 |
| GTCGCGTAGG | 1.03 ± 0.024 |
| GTCGCTTGTC | 0.995 ± 0.023 |
| GTCGGCGGGG | 0.98048 ± 0.0006 |
| GTCGGGGGGA | 0.993 ± 0.014 |
| GTCGGGGTTG | 0.971 ± 0.014 |
| GTCGGTTGGA | 0.977 ± 0.036 |
| GTCGGTTGTG | 0.974 ± 0.055 |
| GTCGTAAAGG | 0.998 ± 0.021 |
| GTCGTAACAG | 0.9857 ± 0.0047 |
| GTCGTAGGGG | 1.03 ± 0.018 |
| GTCGTTCTGA | 0.99257 ± 0.00085 |
| GTCTAACGCG | 0.9698 ± 0.0072 |
| GTCTAACTTA | 1.01 ± 0.033 |
| GTCTATAATT | 0.9879 ± 0.0048 |
| GTCTCAAGGG | 0.981 ± 0.039 |
| GTCTGAAGGA | 0.9791 ± 0.0055 |

| Sequence | switch fluorescence ratio |
| --- | --- |
| GTCTGAGGCT | 0.9853 ± 0.0076 |
| GTCTGAGGGG | 0.9965 ± 0.0061 |
| GTCTGATTTG | 0.999 ± 0.023 |
| GTCTGGCTAC | 1.22 ± 0.061 |
| GTCTGTTCTT | 0.951 ± 0.019 |
| GTCTTTAAGG | 0.964 ± 0.036 |
| GTGAAAAAGA | 1.005 ± 0.0075 |
| GTGAAAAGCA | 1.04 ± 0.014 |
| GTGAAGGAGC | 0.995 ± 0.017 |
| GTGAAGGGTT | 0.993 ± 0.039 |
| GTGACACACC | 1.15 ± 0.039 |
| GTGACCCGGA | 0.97057 ± 0.00025 |
| GTGAGAGCTG | 0.952 ± 0.015 |
| GTGAGCCGGG | 1.01 ± 0.014 |
| GTGAGCGGGG | 0.974 ± 0.037 |
| GTGAGGATTT | 0.986 ± 0.013 |
| GTGAGGCCGC | 1.0626 ± 0.001 |
| GTGAGGCGCT | 1.03 ± 0.011 |
| GTGAGGCGGG | 1.009 ± 0.0024 |
| GTGAGGGATA | 0.984 ± 0.043 |
| GTGAGGGGGT | 1.06 ± 0.14 |
| GTGAGTGGGG | 0.972 ± 0.021 |
| GTGAGTTTTA | 0.971 ± 0.019 |
| GTGATCAAGC | 0.984 ± 0.028 |
| GTGATCAGTG | 0.98698 ± 0.00016 |

| Sequence | switch fluorescence ratio |
| --- | --- |
| GTGATCATCG | 1.0081 ± 0.00023 |
| GTGATGGGAC | 1.02 ± 0.0077 |
| GTGATGTTGT | 0.977 ± 0.037 |
| GTGATTGATC | 1.04 ± 0.023 |
| GTGATTGGGA | 0.963 ± 0.058 |
| GTGATTTCGG | 1.022 ± 0.0095 |
| GTGATTTTTG | 1.01 ± 0.063 |
| GTGCAAATTG | 0.997 ± 0.024 |
| GTGCAAGGTA | 1 ± 0.014 |
| GTGCAATAGT | 3.71 ± 0.63 |
| GTGCAGGTGC | 1.37 ± 0.026 |
| GTGCCCACGT | 1 ± 0.039 |
| GTGCCTCCTG | 1.03 ± 0.018 |
| GTGCCTTAGG | 0.99797 ± 0.00039 |
| GTGCGCATGG | 1.13 ± 0.067 |
| GTGCGGAGTG | 0.97 ± 0.041 |
| GTGCGGCCAA | 1.02 ± 0.044 |
| GTGCGTCTTT | 1.01 ± 0.041 |
| GTGCTAAATA | 1.02 ± 0.0067 |
| GTGCTAACCT | 1.271 ± 0.011 |
| GTGCTGGGCG | 0.994 ± 0.028 |
| GTGCTGGGGG | 1.02 ± 0.02 |
| GTGCTTGCGG | 1.01 ± 0.036 |
| GTGCTTGGAA | 0.994 ± 0.033 |
| GTGGAAAATT | 0.987 ± 0.018 |

| Sequence | switch fluorescence ratio |
| --- | --- |
| GTGGAAGAGT | 0.999 ± 0.018 |
| GTGGAAGGTT | 0.995 ± 0.014 |
| GTGGACAGGC | 1 ± 0.02 |
| GTGGACCTGA | 1.07 ± 0.02 |
| GTGGACTTCG | 1.0178 ± 0.001 |
| GTGGAGTTTG | 0.999 ± 0.012 |
| GTGGATAGTC | 0.992 ± 0.066 |
| GTGGATATTG | 1 ± 0.028 |
| GTGGATGCGG | 0.962 ± 0.038 |
| GTGGATGGGG | 1.05 ± 0.13 |
| GTGGCAAAAG | 1.02 ± 0.033 |
| GTGGCAGGAA | 0.964 ± 0.068 |
| GTGGCGAAGG | 0.993 ± 0.014 |
| GTGGCGCCGC | 0.959 ± 0.047 |
| GTGGCGTGGA | 0.991 ± 0.021 |
| GTGGCTATGG | 0.96188 ± 0.00027 |
| GTGGCTCTGC | 0.973 ± 0.077 |
| GTGGCTGGGG | 1 ± 0.029 |
| GTGGGAAAG | 0.983 ± 0.016 |
| GTGGGAACCT | 1.45 ± 0.29 |
| GTGGGAAGGG | 0.996 ± 0.017 |
| GTGGGAGCGG | 1.02 ± 0.042 |
| GTGGGAGGGT | 0.984 ± 0.041 |
| GTGGGAGGTG | 1 ± 0.046 |
| GTGGGATGGA | 0.978 ± 0.014 |

| Sequence | switch fluorescence ratio |
| --- | --- |
| GTGGGATTTG | 0.9697 ± 0.0069 |
| GTGGGGATTC | 0.971 ± 0.037 |
| GTGGGGCCGA | 1.01 ± 0.031 |
| GTGGGGCGGA | 1.01 ± 0.023 |
| GTGGGGGAAG | 0.993 ± 0.039 |
| GTGGGGGACT | 1.28 ± 0.5 |
| GTGGGGGAGC | 0.985 ± 0.029 |
| GTGGGGGCTT | 0.947 ± 0.021 |
| GTGGGGGGTG | 1.02 ± 0.057 |
| GTGGGGGTAA | 0.9692 ± 0.0039 |
| GTGGGGTACA | 0.996 ± 0.049 |
| GTGGGGTGTT | 0.985 ± 0.02 |
| GTGGGTCAGG | 1.01 ± 0.013 |
| GTGGGTGCAG | 1.03 ± 0.041 |
| GTGGGTGCGG | 0.979 ± 0.051 |
| GTGGGTTATC | 1.004 ± 0.007 |
| GTGGGTTGGG | 1.09 ± 0.058 |
| GTGGTAAGTT | 0.942 ± 0.026 |
| GTGGTAGGGA | 0.98 ± 0.019 |
| GTGGTATGGT | 1.02 ± 0.025 |
| GTGGTCCGCG | 1.017 ± 0.0015 |
| GTGGTCTGTG | 0.972 ± 0.018 |
| GTGGTGATAG | 0.9652 ± 0.0041 |
| GTGGTGCACG | 0.9971 ± 0.0026 |
| GTGGTGGAAA | 1 ± 0.0029 |
